Tested on: MS2 coat protein
Assay: apparent KD of MS2 coat protein; designed switch direction (-1 OFF switch, 1 ON switch): -1; higher = weaker reporter binding
Method in brief: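 Normalised cluster fluorescence was curve-fitted, and each design's median over clusters is its apparent KD. Before this, SNAP-549-labelled MS2 coat protein was titrated from 0.7 or 1.5 nM, doubling to 3 µM, over RNA switches transcribed on Illumina chips by stalled E. coli RNA polymerase. Titrations had no input, 200 uM small-molecule ligand, or an oligonucleotide input, and steps lasted 0.8–1.5 h (lowest) to 10–20 min (highest).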

[1] = Eterna round: R95, input ligand: microRNA oligo, concentration not stated
[2] = input ligand: microRNA oligo, concentration not stated
[3] = Eterna round: R95, input ligand: FMN 200 uM
[4] = Eterna round: R95, input ligand: none

Q: “GAUCCACAUGAGGAUCACCCAUGUGAGGAUAUGAUACUAUGUACUUCGGUACAUAGUAUCAGAAGGCAUAUGAA [Ex1-3: 47] (puzzle: Exclusion 1)” was tested. Which “apparent KD of MS2 coat protein” value [1] did it give?
A: 45.6 nM

Q: “ACUAGAUGAGGAUAUGCAUAUUUUCGUGUUCUUCUAGAUUAACAUGAGGAUCACCCAUGUAGAAGGCGUCUGGA [Exclusion 2 - 18] (puzzle: Exclusion 2)” was tested. Which “apparent KD of MS2 coat protein” value [1] did it give?
A: 17.6 nM

Q: “AGGUGCUUCUGGAGACAUGAGGAUCACCCAUGUUGAGUUAGCGAGGAUAUCGGUAAUGCAUGUGAUGAGAAGGCGCAAACCGAU [Ex NG3 #48] (Eterna round: R96, puzzle: Exclusion NG 3)” was tested. Which “apparent KD of MS2 coat protein” value (input ligand: FMN 200 uM) did it give?
A: 36.8 nM

Q: What about the “apparent KD of MS2 coat protein” value [2] of the same sequence?
A: 40.3 nM

Q: What about the “apparent KD of MS2 coat protein” value (input ligand: none) of the same sequence?
A: 46.1 nM

Q: Which results are given for “GCCUCACAUGAGGAUCACCCAUGUCAGGAUAUACCCAUCCAGCGAAAUAAACGCUGUAGUAGAAGGGACAUGCA [Anlaat] (Eterna round: R97, puzzle: Exclusion 1)”?
A: apparent KD of MS2 coat protein (input ligand: FMN 200 uM): 40.3 nM; apparent KD of MS2 coat protein (input ligand: none): 15.3 nM

Q: Which “apparent KD of MS2 coat protein” value [1] does the source give for “GAAUAGGCAGGAUAUACAUGAGGAUCACCCAUGUGCUUGCGAUAGGCACGUGAACAACGUAGAAGGGCCUUAAC [ChP 13.04.2015 #12] (puzzle: Exclusion 3)” here?
A: 28.3 nM

Q: For “UACCUAAUGGGUGUUUCUCACAUGAGGAUCACCCAUGUCACUAGCUUUUUGCUCAUCUUAUCGAAACACCCUUAGUC [Birerage] (puzzle: Sensor v3, turn-off variant 1)”, which “apparent KD of MS2 coat protein” value [3] is on record?
A: 21.3 nM

Q: What about the “apparent KD of MS2 coat protein” value [1] of the same sequence?
A: 10.2 nM

Q: And the “apparent KD of MS2 coat protein” value [4]?
A: 20.8 nM

Q: How did the “apparent KD of MS2 coat protein” value [3] turn out when “AUGAGCAGACGGAGAUCCAACAUGAGGAUCACCCAUGUCUCAAAAGCUUUUUGCUCAUCUUAUCGUACCUUGGUGCU [Mat - Sensor v3 - turn-off var 1 - JL Mod - D13] (puzzle: Sensor v3, turn-off variant 1)” was run?
A: 162 nM

Q: What about the “apparent KD of MS2 coat protein” value [1] of the same sequence?
A: 15.4 nM

Q: What about the “apparent KD of MS2 coat protein” value [4] of the same sequence?
A: 238 nM

Q: How did the “apparent KD of MS2 coat protein” value (input ligand: FMN 200 uM) turn out when “AACAGUCUAGAGGAUAUGCUGGAUGAAUAUCUGGCAGAAGGCUGGACAUGAGGAUCACCCAUGUAAAUACUACC [Omei Ex6 A1c] (Eterna round: R97, puzzle: Exclusion 6)” was run?
A: 96.9 nM

Q: And the “apparent KD of MS2 coat protein” value (input ligand: none)?
A: 36.5 nM

Q: With “CUUUUCAGAGGAUAUAGAUAUUAUCACAUGAGGAUCACCCAUGUAACCCUACAUUCACCACUAGAAGGCUGUUAAG [lam1] (Eterna round: R97, puzzle: Exclusion 5)” as the sequence, how does the “apparent KD of MS2 coat protein” value (input ligand: FMN 200 uM) read?
A: 27.1 nM

Q: And the “apparent KD of MS2 coat protein” value (input ligand: none)?
A: 48.5 nM

Q: For “GGUGCGUAUGUGAGGAUAUGCUGGUCCUUGGAUCAGCAGAAGGCACAUGAGGAUCACCCAUGUGGUGUCGUACC [JL bmx4 3.46] (puzzle: Brourd's mod of Exclusion 4)”, which “apparent KD of MS2 coat protein” value [1] is on record?
A: 149 nM

Q: With “AAUAGACAUGAGGAUCACCCAUGUCAGGAUAUUUCGAGUAAGGUGGGCCUAGAAUUGGGAAGAAGGGACCUGGA [Eternabot (L1) Solution 29] (Eterna round: R97, puzzle: Exclusion 1)” as the sequence, how does the “apparent KD of MS2 coat protein” value (input ligand: FMN 200 uM) read?
A: 17.7 nM

Q: And the “apparent KD of MS2 coat protein” value (input ligand: none)?
A: 21.3 nM

Q: How did the “apparent KD of MS2 coat protein” value [2] turn out when “UAUAUAUAGUAAGGAUAUGUAACUAUUUUAUAAACAGAAGGUACUGACAUGAGGAUCACCCAUGUUUUAGUGUGGGCAUGUAGA [JMF's solution 29] (Eterna round: R96, puzzle: Exclusion NG 1)” was run?
A: 72.6 nM

Q: What does the source list for “UUUUUAAAUGAAGGAUAUACUUAACAUGAGGAUCACCCAUGUGGUGUUGUGAGUGAGUGAGUUUAGUAGAAGGUCAAUUCUUUU [JMF's solution 86] (Eterna round: R96, puzzle: Exclusion NG 2)”?
A: apparent KD of MS2 coat protein (input ligand: FMN 200 uM): 619 nM; apparent KD of MS2 coat protein [2]: 300 nM; apparent KD of MS2 coat protein (input ligand: none): 334 nM

Q: For “CCAUACCGAGGAUAUACAUGAGGAUCACCCAUGUCAAAACCACGUGUACGGCGGUCUUGUAGAAGGCGGAAAUA [Onbisodi] (puzzle: Exclusion 3)”, which “apparent KD of MS2 coat protein” value [1] is on record?
A: 9.99 nM

Q: How did the “apparent KD of MS2 coat protein” value (input ligand: FMN 200 uM) turn out when “GUGGUGGGUUUUCCGAGUGACAUGAGGAUCACCCAUGUGUUAGUUUGAGGUAUCAAGCGAAUGGCUCGUCUUAUGUG [JR_SV3TOV1_Sub046] (Eterna round: R96, puzzle: Sensor v3, turn-off variant 1)” was run?
A: 982 nM

Q: What about the “apparent KD of MS2 coat protein” value [2] of the same sequence?
A: 44.7 nM

Q: What about the “apparent KD of MS2 coat protein” value (input ligand: none) of the same sequence?
A: 623 nM

Q: For “AAACCUGAAGUUAGGAUAUGAAGUAUCACUAUACUUCAGAAGGAACUUGAGGAUCACCCAAGUAGCCGUGAGGC [jl-bmx4.4.66 ViennaUCT mod] (Eterna round: R97, puzzle: Brourd's mod of Exclusion 4)”, which “apparent KD of MS2 coat protein” value (input ligand: FMN 200 uM) is on record?
A: 110 nM

Q: And the “apparent KD of MS2 coat protein” value (input ligand: none)?
A: 23 nM

Q: Which results are given for “GUUAACGUAGGAUAUUAGUACAUGCACAUGAGGAUCACCCAUGUUUAGUGGGUCUAGGAAUAAGAAGGGCGAAGAA [EX5 #23] (Eterna round: R97, puzzle: Exclusion 5)”?
A: apparent KD of MS2 coat protein (input ligand: FMN 200 uM): 170 nM; apparent KD of MS2 coat protein (input ligand: none): 309 nM

Q: Which results are given for “CGAUCACAUGAGGAUCACCCAUGUCAGGAUAUCGUCCAUAGGAAACAACCCUUCGAGGCGAGAAGGGACAAUCG [Eternabot (Original) Solution 29] (Eterna round: R97, puzzle: Exclusion 1)”?
A: apparent KD of MS2 coat protein (input ligand: FMN 200 uM): 46.9 nM; apparent KD of MS2 coat protein (input ligand: none): 31.1 nM

Q: With “UGAAUGUGAGGAUAUGGUGAGUAGUGCCUAAGCGCUGCUCACCAGAAGGCACAUGAGGAUCACCCAUGUACUUG [Mat - Exclusion 4 - Mod of JL - D19] (puzzle: Exclusion 4)” as the sequence, how does the “apparent KD of MS2 coat protein” value [1] read?
A: 47.9 nM

Q: With “UGUAGUUCAGGAUAUGAUGUAUAAUACAUGAGGAUCACCCAUGUAGAUCCUGAAUUUACAUCAGAAGGGAAUAUUU [JL-ex5-4.58 Brourd mod] (Eterna round: R97, puzzle: Exclusion 5)” as the sequence, how does the “apparent KD of MS2 coat protein” value (input ligand: FMN 200 uM) read?
A: 20.4 nM

Q: What about the “apparent KD of MS2 coat protein” value (input ligand: none) of the same sequence?
A: 15.4 nM

Q: How did the “apparent KD of MS2 coat protein” value [3] turn out when “UCGUGGUAAAUCAGGUGAUGUCUGAUAGGAUGGACUUUGACAUGAGGAUCACCCAUGUUGCUUUUUGCCCGUCUUAA [JR_SV3TOV2_Sub044] (puzzle: Sensor v3, turn-off variant 2)” was run?
A: 16.1 nM

Q: And the “apparent KD of MS2 coat protein” value [1]?
A: 27.3 nM

Q: And the “apparent KD of MS2 coat protein” value [4]?
A: 15.2 nM

Q: “UUAAAUCAUGUAGGAUAUGCGUGGCGAAGCUAUGCAGAAGGACAUGAGGAUCACCCAUGUUCUGCGGUCUGCGUACAGAUCGCU [JL ENG1 1.04] (Eterna round: R96, puzzle: Exclusion NG 1)” was tested. Which “apparent KD of MS2 coat protein” value [2] did it give?
A: 14.9 nM

Q: Which “apparent KD of MS2 coat protein” value [3] does the source give for “CCGAAUAUGUAGGAUAUCGUAUCGGAAACGAUACGAGAAGGGCAAACAUGAGGAUCACCCAUGUUCCUUAACGG [Fiskers Ex 6 - 13] (puzzle: Exclusion 6)” here?
A: 16.3 nM

Q: And the “apparent KD of MS2 coat protein” value [1]?
A: 15.1 nM

Q: What about the “apparent KD of MS2 coat protein” value [4] of the same sequence?
A: 14.2 nM

Q: How did the “apparent KD of MS2 coat protein” value [1] turn out when “CAGUACUGAGGAUAUACAUGAGGAUCACCCAUGUGCUUCAGCUAGGAUACUAGCAUUAGUAGAAGGCAGUACUG [Fiskers Ex 3 828 mod 13] (puzzle: Exclusion 3)” was run?
A: 11.3 nM

Q: Which “apparent KD of MS2 coat protein” value [3] does the source give for “GGAUGUUAGGAGGAUAUCUGACGUCGAAAAGAAGGAGAAGGCCUGACAUGAGGAUCACCCAUGUGGUCAAAAGA [Eresinbi] (puzzle: Exclusion 6)” here?
A: 1200 nM

Q: What about the “apparent KD of MS2 coat protein” value [1] of the same sequence?
A: 110 nM

Q: What about the “apparent KD of MS2 coat protein” value [4] of the same sequence?
A: 97.8 nM
